Our source for the stoichiometry N values is article PMC10441885.

This experiment concerns the target recombinant PsCAT1 fusion protein (His6-SUMO-PsCAT1 without the signal peptide, from pET15b-SUMO-PsCAT1) (Puccinia striiformis f. sp. tritici). Put plainly: SEC.

As for “recombinant PsCAT1 fusion protein (His6-SUMO-PsCAT1 without the signal peptide, from pET15b-SUMO-PsCAT1) (enzyme)”, the stoichiometry N stood at 23.
